Results on 4 molecules are retold here after article PMC5175368.

Numbering of substitutions follows the chain as printed.

The data set deals with PA63 (cleaved protective antigen) (Bacillus anthracis, UniProt P13423 197-764). Put plainly: filter binding.
PA63 (cleaved protective antigen), sequence (P13423 197-764): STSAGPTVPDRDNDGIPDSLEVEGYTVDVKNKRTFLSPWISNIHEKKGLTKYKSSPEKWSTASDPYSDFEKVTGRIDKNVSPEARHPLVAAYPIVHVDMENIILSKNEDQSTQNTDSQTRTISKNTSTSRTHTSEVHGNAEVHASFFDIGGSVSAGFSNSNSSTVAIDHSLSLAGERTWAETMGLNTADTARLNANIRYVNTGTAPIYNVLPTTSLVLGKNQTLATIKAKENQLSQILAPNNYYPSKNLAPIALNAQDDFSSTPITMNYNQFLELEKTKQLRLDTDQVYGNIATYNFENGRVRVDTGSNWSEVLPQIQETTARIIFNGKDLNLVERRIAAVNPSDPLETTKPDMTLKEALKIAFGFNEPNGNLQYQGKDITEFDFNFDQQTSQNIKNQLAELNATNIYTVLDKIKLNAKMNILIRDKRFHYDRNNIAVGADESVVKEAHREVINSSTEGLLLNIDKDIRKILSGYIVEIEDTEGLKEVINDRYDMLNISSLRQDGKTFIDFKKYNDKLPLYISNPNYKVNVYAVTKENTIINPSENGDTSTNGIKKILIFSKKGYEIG

Turning to CGTGTGGACCATGGGGTGAGTGGGTAGGTGTCCTGAGGAGGT (structured_DNA) [PA1T4StdG], the binding result is given as “no binding”. Take CGTGTGGACCATGGAGTGAGTGAGTAGGTGTCCTGAGGAGGT (structured_DNA) [PA1T4StdA]: the binding result is reported as “no binding”.

B1: PA1StdG (structured_DNA)
DNA: AGAGAGCGTCGTGTGGACCATGGGGTGAGTGGGTAGGTGTCCTGAGGAGGTGCGCAAGT
For the molecule B1, the binding result is “no binding”.

B2: PA1StdA (structured_DNA)
DNA: B1 DNA with G24A, G32A
Turning to B2, the binding result is “no binding”.
